From patent US9499823B2, “Constructs expressing chimeric receptors and use thereof for the controlled activation of defence response to pathogens in plants” (priority 2009, dated 2016)
“Also recorded” adds a separate entry of the source.

Tests used:
[1] = tested on: ethylene biosynthesis in tobacco leaves; test: Induction of ethylene biosynthesis in agroinfiltrated tobacco leaf explants; format: cell-based, Nicotiana tabacum; conditions: elfl8 10 μM, 2 h
Description: F) Induction of ethylene biosynthesis in agroinfiltrated tobacco leaves expressing the fluorescent EFR, FLS2, TMC, eJMC and eJMC^Y859A. NC: negative control, represented by agroinfiltrated leaf tissues expressing fluorescent EFR or FLS2 and elicited with flg22 or elfl8, respectively. Results are averages±standard error (n=3).
Excised infiltrated leaf sectors were stimulated for 2 h with water or the elicitor ([…] and 100 μg/ml for OGs). Values are means±s.e.m. (N=3).
E) Induction of ethylene biosynthesis in agroinfiltrated tobacco leaves expressing EFR, WAK1, WEG and EWAK. Each construct was stimulated for 2 h with elfl8 (10 μM) or OGs (100 μg/mL). NC: negative control, represented by agroinfiltrated leaf tissue expressing EFR or FLS2 when OGs or elfl8, respectively, were used for elicitation. Error bars indicate the standard error of three independent replicates.
(A) Induction of ethylene biosynthesis in agroinfiltrated tobacco explants expressing EFR, WAK1, WEG and EWAK. […] Agroinfiltrated leaf tissues expressing EFR or WEG and elicited with OGs or elfl8 respectively, represented our negative control. Values are means±s.e.m. (N=3). (B) Elicitor-induced gene expression in untransformed Col-0 and Col-0 efr plants, and in transgenic Arabidopsis Col-0 efr plants stably expressing WEG. Accumulation of At3g22270 and At4g37640 transcripts was analysed by semi-quantitative PCR, using the UBQ5 gene for normalization. Adult leaves were syringe-infiltrated with water, OGs (25 μg/ml) or elfl8 (10 μM) for 3 h. The experiment was repeated three times with similar results. The same experiment was performed in a second independent transgenic line expressing WEG with similar results.
Approximately 150 mg of tobacco agroinfiltrated leaf were cut in small slices and extensively washed with sterile distilled water. The explants were placed in sealed 10 mL flasks containing 2 mL of sterile water alone or supplemented with 100 mg L^−1 OGs, or 1 μM flg22 or 10 μM elfl8. 450 μl headspace samples were withdrawn from the vial after 2 h treatment and analyzed by gas chromatography-mass spectrometry using an Agilent 6850A gas chromatograph coupled to a 5973N quadrupole mass selective detector (Agilent Technologies, Palo Alto, Calif., USA). Chromatographic separations were carried out an HP Plot-Q fused-silica capillary column (30 m×0.32 mm i.d.) coated with polystyrene-divinylbenzene (film thickness 0.20 μm) as stationary phase. Injection mode: splitless at a temperature of 220° C. The initial temperature of the oven was held at 50° C. for 8 min then ramped to 220° C. at a rate of 15° C./min and held for 5 min. Helium was used as carrier gas at a constant flow of 1.0 ml/min. Mass spectra were collected both in full scan and in SIM mode monitoring the ions m/z m/z 26, m/z 27 and m/z 28 (ionization energy 70 eV; ion source 280° C.; ion source vacuum 10^−5 Torr).

[2] = tested on: Pseudomonas syringae DC3000; test: Pseudomonas DC3000 infection of Arabidopsis Ws-0 plants by spraying; format: in vivo; conditions: transgenic Ws-0 plants vs Ws-0 wild type, 4 days post infection
Text: C) Pseudomonas DC3000 infections. (Left Panel) Symptoms disease of wild type and transformed plants after 4 days post infection. (Right panel) Growth of Pseudomonas syringae DC3000 after 4 day post infection. ***, p<0.005.
The authors therefore infected A. thaliana plants by spraying Pst DC3000 bacteria onto leaf surfaces. […] Higher resistance of eJMC plants, compared to Ws-0 wild-type plants, was found in all of three independent experiments.

[3] = tested on: oxidative burst in tobacco leaves; test: Oxidative burst, luminol-dependent photon counting in agroinfiltrated tobacco leaf slices; format: cell-based, Nicotiana tabacum; conditions: 10 μM elfl8, after 15 min
Description: D) Oxidative burst in tobacco leaves transiently expressing eJMC, EFR and EWAK. Photon counting was realized using tobacco leaves slices in a solution of luminol and peroxidase, during treatment with 10 μM elfl8. eJMC- and EFR-expressing explants were used as a negative and a positive control, respectively. Experiment was repeated at least 6 times on two independent replicated.
(C) Oxidative burst in agroinfiltrated tobacco leaves expressing EWAK. Leaves expressing eJMC and EFR were used as a negative and a positive control, respectively. The burst was measured by photon counting using leaf slices incubated in a solution containing 10 μM elfl8, luminol and peroxidase. The experiment was repeated at least 6 times with two independent replicates.
(§1) 3,3′-diaminobenzidine (DAB) staining, callose deposition and gene resistance analysis were assayed as described (Galletti et al., 2008). For measuring active oxygen species released by tobacco agroinfiltrated plants after elicitor treatment, the authors used a modified luminol-dependent assay (Gomez et al., 1999). Slices, corresponding to approximately 30 mg fresh weight, were transferred to assay tubes containing 1 μM flg22 or 10 μM elfl8 in aqueous solution supplied with 40 μM luminol (SIGMA). Chemo-luminescence was measured in a liquid scintillation counter (LS-6500, Beckman) after 5 and 15 min upon addition of elicitors.

[4] = tested on: Agrobacterium tumefaciens GV3101; test: Growth of Agrobacterium in N. tabacum tissues transiently expressing receptor proteins; format: in vivo; conditions: 24 h after inoculation, tobacco tissues expressing the receptor, p<0.005
Description: F) Growth of Agrobacterium in N. tabacum tissues transiently expressing receptor proteins. Tobacco leaves were infiltrated with Agrobacterium expressing the indicated receptors and the number of Agrobacterium colony-forming units (c.f.u.) in the tissues was analyzed soon after infiltration (white bars) and 24 h (gray bars). EFR and eJMC were used as positive and negative controls, respectively. For each receptor, three samples were analyzed in five independent experiments. *, p<0.005.
(§2) (A) Growth of A. tumefaciens in N. tabacum tissues transiently expressing receptor proteins. Tobacco leaves were infiltrated with Agrobacterium carrying the indicated receptor constructs and the number of Agrobacterium colony-forming units (c.f.u.) in the tissues was analyzed immediately after infiltration (white bars) and after 24 h (gray bars). EFR and eJMC were used as positive and negative controls, respectively. For each receptor, three samples were analyzed in five independent experiments. Asterisks indicate statistically significant differences against control (Col-0 for WAK1 plants and Col-0 efr for WEG and EWAK plants). (B) Lesion development in Arabidopsis wild type (Col-0) and mutant Col-0 efr plants and in transgenic plants expressing WAK1, WEG and EWAK plants inoculated with B. cinerea at 48 h post-inoculation. Values are means±s.e.m. of at least 16 lesions. The same experiment was performed in a second independent transgenic line expressing WAK1 with similar results. Asterisks indicate statistically significant differences against control (Col-0 for WAK1 plants and Col-0 efr for WEG and EWAK plants).
(§3) Agrobacterium tumefaciens GV3101 strain infections was performed as described in Katagiri et al., (2002) and using a concentration of Agrobacterium corresponding at an OD600 of 1.0 in 10 mM MgCl2 and 600 μM acetosyringone. After 24 h of infiltration, serial dilution of Agrobacterium colonies were deposited on LB agar supplemented with gentamycin and rifampicin and grown for 2-3 days at 28° C. in the dark. At least 5 independent plants and 3 different leaves by plant, were used per experiment. Pectobacterium carotovorum subsp. carotovorum infections Pectobacterium carotovorum subsp. carotovorum (formely Erwinia carotovora; Gardan et al., 2003) (strain DMSZ 30169) was obtained from DSMZ GmbH (Germany). A liquid colture using 10 ml LB medium was prepared. After 16 h of growth at 28° C. on rotary shaker at 250 rpm, bacterial cells were harvested by centrifugation and the pellet was resuspended in 50 mM potassium phosphate buffer pH 7.0 corresponding to 5×10^7 CFU/ml.

B. cinerea = test: Lesion development in Arabidopsis plants inoculated with B. cinerea; format: in vivo; conditions: transgenic Arabidopsis vs Col-0 or Col-0 efr, 48 h post-inoculation
Description: as §2

[5] = tested on: Pectobacterium carotovorum subsp. carotovorum; test: Infection assay with Pectobacterium carotovorum on transgenic Arabidopsis leaves; format: in vivo; conditions: transgenic Arabidopsis vs Col-0 or Col-0 efr, 24 h, 5×10^7 CFU/ml
Description: Inoculum concentration was 5×10^7 CFU/ml). Values are means±SE of at least 16 lesions. Asterisks indicate statistically significant differences against control plants (Col-0 or Col-0 efr), according to Student's t test (*, p<0.0005).
as §3, with “After 16 h of growth at 28° C. on rotary shaker at 250 rpm, bacterial cells were harvested by centrifugation and the pellet was resuspended in 50 mM potassium phosphate buffer pH 7.0 corresponding to 5×10^7 CFU/ml.” left out
For infection, fully developed leaves of 4 week old Arabidopsis plants were detached and placed in 0.8% agar Petri dishes. […] Symptoms were scored measuring the area of macerated tissue after 24 hour post inoculation at 22° C. and 12 h photoperiod. Area was measured by ImageJ software. […]

[6] = tested on: transgenic Arabidopsis leaves; test: Constitutive activation of defense responses (H2O2, callose) in transgenic plants; format: cell-based, Arabidopsis thaliana; conditions: no elicitor
Description: Leaves were stained with 3,3′-diaminobenzidine (DAB) for H2O2 visualization (upper panel) and with aniline blue for callose visualization (lower panel).
as §1

B1: EWAK: chimera: EFR ectodomain fused to the TM-iJM-kinase portion of WAK1, GFP-fused (protein)
chain: RFSNETDMQALLEFKSQVSENNKREVLASWNHSSPFCNWIGVTCGRRRERVISLNLGGFKLTGVISPSIGNLSFLRLLNLADNSFGSTIPQKVGRLFRLQYLNMSYNLLEGRIPSSLSNCSRLSTVDLSSNHLGHGVPSELGSLSKLAILDLSKNNLTGNFPASLGNLTSLQKLDFAYNQMRGEIPDEVARLTQMVFFQIALNSFSGGFPPALYNISSLESLSLADNSFSGNLRADFGYLLPNLRRLLLGTNQFTGAIPKTLANISSLERFDISSNYLSGSIPLSFGKLRNLWWLGIRNNSLGNNSSSGLEFIGAVANCTQLEYLDVGYNRLGGELPASIANLSTTLTSLFLGQNLISGTIPHDIGNLVSLQELSLETNMLSGELPVSFGKLLNLQVVDLYSNAISGEIPSYFGNMTRLQKLHLNSNSFHGRIPQSLGRCRYLLDLWMDTNRLNGTIPQEILQIPSLAYIDLSNNFLTGHFPEEVGKLELLVGLGASYNKLSGKMPQAIGGCLSMEFLFMQGNSFDGAIPDISRLVSLKNVDFSNNNLSGRIPRYLASLPSLRNLNLSMNKFEGRVPTTGVFRNATAVSVFGNTNICGGVREMQLKPCIVQASPRKRKPLSVRKKVVSGWTTILLVTTIGFLVILLGVACIQQRMKHLKDTKLREQFFEQNGGGMLTQRLSGAGPSNVDVKIFTEDGMKKATNGYAESRILGQGGQGTVYKGILPDNSIVAIKKARLGDSSQVEQFINEVLVLSQINHRNVVKLLGCCLETEVPLLVYEFITNGTLFDHLHGSMIDSSLTWEHRLKIAIEVAGTLAYLHSSASIPIIHRDIKTANILLDVNLTAKVADFGASRLIPMDKEELETMVQGTLGYLDPEYYNTGLLNEKSDVYSFGVVLMELLSGQKALCFKRPQSSKHLVSYFATATKENRLDEIIGGEVMNEDNLKEIQEAARIAAECTRLMGEERPRMKEVAAKLEALRVEKTKHKWSDQYPEENEHLIGGHILSAQGETSSSIGYDSIKNVAILDIETGR
modifications: left off: large carriers
ethylene accumulation upon stimulation with elfl8 [1]: did not
development of disease symptoms / susceptibility to Pst DC3000 [2]: confers resistance
oxidative burst upon treatment with elfl8 [3]: produced an oxidative burst; also recorded: robust oxidative burst
decrease in the number of living Agrobacterium cells [4]: 30%
resistance to B. cinerea infection (B. cinerea): not
resistance to Pectobacterium carotovorum subsp. carotovorum [5]: increased resistance; also recorded: confers resistance
constitutive activation of defense responses (H2O2 levels, callose deposits) [6]: do not show constitutive activation of defense responses
